# Assay results: patent publication US20100209439A1 (FORERUNNER PHARMA RESEARCH, published 2010)
# T1: Recombinant human Prominin-1 with C-terminal FLAG-tag, forcedly expressed on DG44 cells (human, UniProt O43490 20-865)
# T1 construct: whole, on cells; Expressed in DG44 cells; also called Prominin-1 recombinant protein; cells forcedly expressing Prominin-1; not shown: FLAG-tag artificially added to the C terminus
# T1 sequence (looked up): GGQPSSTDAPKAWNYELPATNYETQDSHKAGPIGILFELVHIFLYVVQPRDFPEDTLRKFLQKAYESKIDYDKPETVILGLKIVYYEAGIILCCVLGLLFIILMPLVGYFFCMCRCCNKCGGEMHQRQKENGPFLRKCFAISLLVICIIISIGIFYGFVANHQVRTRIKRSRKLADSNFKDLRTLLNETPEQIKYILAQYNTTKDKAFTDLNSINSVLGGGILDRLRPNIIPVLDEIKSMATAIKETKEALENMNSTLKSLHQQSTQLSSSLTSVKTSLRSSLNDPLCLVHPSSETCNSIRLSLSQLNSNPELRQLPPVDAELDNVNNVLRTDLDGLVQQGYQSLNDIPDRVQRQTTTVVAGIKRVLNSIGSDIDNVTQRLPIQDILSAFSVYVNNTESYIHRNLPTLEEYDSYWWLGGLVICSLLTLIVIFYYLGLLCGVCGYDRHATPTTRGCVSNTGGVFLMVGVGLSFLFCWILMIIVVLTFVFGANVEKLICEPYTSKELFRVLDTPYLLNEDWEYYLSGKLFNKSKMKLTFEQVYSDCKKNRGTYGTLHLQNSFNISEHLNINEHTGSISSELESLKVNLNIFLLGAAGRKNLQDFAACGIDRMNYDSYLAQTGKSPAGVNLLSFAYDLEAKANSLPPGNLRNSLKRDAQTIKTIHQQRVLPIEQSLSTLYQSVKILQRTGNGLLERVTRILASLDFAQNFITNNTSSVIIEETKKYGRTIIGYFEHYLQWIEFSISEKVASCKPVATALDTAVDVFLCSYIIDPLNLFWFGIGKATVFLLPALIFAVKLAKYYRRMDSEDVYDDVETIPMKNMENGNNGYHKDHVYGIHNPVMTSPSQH
# B1: AC133.1 antibody (mouse IgG1, produced by hybridoma HB-12346) (antibody, V domains shown)
# VH: QVQLQQSGAELVRPGASVKLSCKASGYTFSDFEMHWVKQTPVHGLEWIGDIDPGTGDTAYNLKFKGKATLTTDKSSSTAYMELRSLTSEDSAVYYCTLGAFVYWGQGTLVTVSA
# VL: DVVVTQTPLSLPVSFGDQVSISCRSSQSLANSYGNTYLSWYLHKPGQSPQLLIYGISNRFSGVPDRFSGSGSGTDFTLKISTIKPEDLGMYYCLQGTHQPYTFGGGTKLEIKR
# notes: The rest is mouse IgG1 heavy chain and Ig kappa light chain; Purified from hybridoma supernatant on Protein G; also called AC133 antibody; A133.1 antibody
# Biological target: T1, Recombinant human Prominin-1 with …
# Assay: flow cytometry on DG44 cells forcedly expressing FLAG-tagged human Prominin-1
binder,measurement,value
B1,binding result,binds
